The source of these data is PMC10883919.

This series has as its target T1, TcrX D54A D54A (Mycobacterium tuberculosis H37Rv) (UniProt O69730).
T1 sequence: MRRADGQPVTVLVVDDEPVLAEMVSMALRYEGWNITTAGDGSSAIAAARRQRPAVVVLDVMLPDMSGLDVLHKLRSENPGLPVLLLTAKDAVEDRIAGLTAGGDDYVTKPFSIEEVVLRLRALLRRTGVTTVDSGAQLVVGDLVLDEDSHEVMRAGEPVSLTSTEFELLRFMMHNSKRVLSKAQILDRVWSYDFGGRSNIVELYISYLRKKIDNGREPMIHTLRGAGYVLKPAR
The series is described as follows: EMSA. (In general: Mobility shift assays separate free from complexed probe on a gel.)

Turning to “TACGACACGCTCAACCGAGATGCGGTGCTGCGTCACAGCGTCAAGTATCCGCACACGGCTGAGCAGACGCCATGCGGATCCTATGTGCGCGCTATGAAACCCGATTTG (double strand) [PtcrXY]”, the binding entry was “binds”.
